# Where two headings read alike, the source gives them in different places.
# How the values were obtained:
# SSB protein [1] = molecular target: T1, SSB protein (UniProt P0AGE0 P0AGE0:2-178); assay: FP; CE/LIFP anisotropy 0.05 to 0.25; 25 mM Na2B4O7 pH 9.1; conditions: tags: Sigma; unlabeled; chain copies: tetramer (stated); label: fluorescein
# SSB protein [2] = molecular target: T1, SSB protein; assay: CE mobility; 25 mM Na2B4O7 pH 9.1, SSB in running buffer; Hill fit; conditions: tags: Sigma; unlabeled; chain copies: tetramer (stated); label: fluorescein
# [3] = molecular target: SSB protein, FITC-labeled (UniProt P0AGE0 P0AGE0:2-178); assay: CE mobility shift of FITC-SSB, anisotropy change only ~0.02; pH 9.1; conditions: tags: FITC (5.3 dye per protein), Sigma; chain copies: tetramer (stated)
# [4] = molecular target: T2, HIV-1 reverse transcriptase (p66/p51) (Human immunodeficiency virus 1, UniProt P04585;P04585 P04585:588-1147,P04585:588-1027)
# [5] = molecular target: MMLV reverse transcriptase (Moloney murine leukemia virus, UniProt P03355 P03355:660-1330)
# SSB protein [6] = molecular target: T1, SSB protein; assay: FP; 1:1 complex; mobility and anisotropy gave similar values; 2:1 complex also seen; A=0.23; conditions: tags: Sigma; unlabeled; chain copies: tetramer (stated); label: fluorescein
# [7] = molecular target: T2, HIV-1 reverse transcriptase (p66/p51); assay: CE/LIF; two complex peaks; lower binding constant than RT 26; 1xTBE; conditions: tags: Worthington Biochemicals; chain copies: heterodimer (stated)
# trp repressor = trp repressor (Escherichia coli, UniProt P0A881 P0A881:2-108); assay: FP; CE/LIFP polarization 0.11 free to 0.25 with repressor; trp binding buffer pH 7.6
# T1 sequence (P0AGE0 2-178, one chain of several): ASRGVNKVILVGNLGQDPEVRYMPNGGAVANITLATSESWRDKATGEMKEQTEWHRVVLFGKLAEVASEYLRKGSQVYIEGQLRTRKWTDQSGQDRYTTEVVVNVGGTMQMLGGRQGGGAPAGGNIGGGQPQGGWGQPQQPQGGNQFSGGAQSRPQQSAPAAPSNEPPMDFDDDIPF
# Sequence of SSB protein, FITC-labeled (P0AGE0 2-178, one chain of several): as above
binder,measurement,setting,value
CGCGATACGCC (ssDNA) [F-11-mer],Ka,SSB protein [1],~5e+06 M⁻¹
same,Ka,SSB protein [2],~4.4e+06 M⁻¹
TTTTTTTTTTTTTTTTTT (ssDNA) [d(pT)18],binding result,[3],binds
RT 26 aptamer (ssDNA) DNA: ATCCGCCTGATTAGCGATACTTACGTGAGCGTGCTGTCCCCTAAAGGTGATACGTCACTTGAGCAAAATCACCTGCAGGGG,binding result,[4],binds
same,binding result,[5],no binding
CCTTAAGCTTCCTCAACCACTTACCATACTCGAGATT (ssDNA) [F-37-mer],Ka,SSB protein [6],~2e+07 M⁻¹
RT 12 aptamer (ssDNA) DNA: ATCTACTGGATTAGCGATACTCGATTAGGTCCCCTGCCGCTAAACCATACCGCGGTAACTTGAGCAAAATCACCACTGCAGGGG,binding result,[7],binds
trp operator 25 bp (dsDNA) DNA 1: ATCGAACTAGTTAACTAGTACGCAA DNA 2: TTGCGTACTAGTTAACTAGTTCGAT,binding result,trp repressor,binds

# — patent publication US20020061531, “Detection of binding factors with fluorescence polarization” (published 2002)
